Results as given in patent publication US20110097340A1 (SCHERING, published 2011).
Where a chain is given by its changes, count along the chain named. One block for each binder: values may come before it.

Columns and labels:
[1] = molecular target: T1, human VEGF165 (human, UniProt P15692 207-395); assay: Biacore competition, inhibition of hVEGF165 binding to immobilized VEGF-R2
T1 construct: Recombinant (R&D Systems 293-VE; sf21- or HEK 293-expressed depending on the assay); Biotinylated in the DELFIA assay; also called hVEGF165; rHu-VEGF165
Method: (§1) VEGF receptor (R&D Systems) was immobilized on the CM5 chip at a density of approximately […] via amine coupling (Biacore). VEGF-R2 was immobilized on fc2 and VEGF-R1 was immobilized on fc4. Flow cells 1 and 3 served as references, and were activated and blocked in the same manner as the receptor immobilized flow cells. […] Samples were incubated for at least one hour prior to initiation of the Biacore analysis run. […] Samples were injected at 10 μl/minute for 1.5 minutes over all flow cells.
(§2) For data analysis, the slope of a linear portion of association (30 seconds to one minute) of the association phase was determined with a linear fit. […] Data was plotted in GraphPad Prism and fit with a sigmoidal dose response curve to calculate the EC₅₀.

[2] = molecular target: T2, murine VEGF165 (murine, UniProt Q00731-2 27-190); assay: sandwich ELISA, antibody coated; epitope ELISA, fold over CHO background: at background, no binding seen
T2 construct: also called mVEGF165; rMu-VEGF165
T2 sequence (looked up): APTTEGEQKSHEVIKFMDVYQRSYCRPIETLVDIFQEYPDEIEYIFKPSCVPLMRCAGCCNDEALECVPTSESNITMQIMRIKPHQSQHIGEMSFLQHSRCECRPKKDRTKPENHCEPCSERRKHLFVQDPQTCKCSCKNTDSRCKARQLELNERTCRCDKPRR
Method: (§3) The plate was blocked with 30% ChemiBlock™ reagent (Millipore) in PBS for one hour at room temperature, and 30, 60, or 100 μl of CHO-K1 culture supernatant for each mutant, or 1 μg/ml of wild-type hVEGF₁₂₁, recombinant hVEGF₁₆₅, or recombinant mVEGF₁₆₅, was added to appropriate wells. After one hour of incubation, the plate was washed and incubated with a biotinylated goat polyclonal anti-VEGF antibody for one hour at room temperature. Detection was performed with HRP-conjugated streptavidin, followed by TMB chromogenic substrate (Calbiochem) using manufacturer protocol.

[3] = molecular target: T1, human VEGF165; assay: cell-based or functional assay
[4] = molecular target: T1, human VEGF165; assay: Biacore 2000, hVEGF165 amine-coupled on C1 chip, antibody injected, 1:1 fit
Method: (§4) The VEGF binding affinity of these IgGs was tested on a Biacore 2000® by injecting the antibodies over a very low density antigen surface. Human or murine VEGF₁₆₅ was immobilized via standard amine coupling methods to flow cells on a C1 (planar carboxy surface) chip. Approximately 85 RU of each antigen was immobilized and a reference flow cell was activated and blocked. Antibodies were injected over the chip surface for 400 seconds at two different concentrations, after which dissociation was monitored. Data was analyzed by Scrubber® using double referencing and fitting with a 1:1 interaction. Regenerations were performed with 90 mM HCl with 500 mM NaCl.
Target sequence in this assay (P15692 other isoform, or with tags, fused parts or gaps limits assumed): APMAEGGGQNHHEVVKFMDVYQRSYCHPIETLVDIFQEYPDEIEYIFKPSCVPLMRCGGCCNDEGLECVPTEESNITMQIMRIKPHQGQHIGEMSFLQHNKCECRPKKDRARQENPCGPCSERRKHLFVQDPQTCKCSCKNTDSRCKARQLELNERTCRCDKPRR

[5] = molecular target: T1, human VEGF165; assay: cell-based or functional assay; remark: listed apart in the source
Target sequence in this assay (P15692 other isoform, or with tags, fused parts or gaps limits assumed): as above

[6] = molecular target: T1, human VEGF165; assay: Biacore, IgG2 (summary table); lower end of the range of IgG2 Biacore results
Method: (§5) Dilution and running buffer for these experiments was HBS-EP (Biacore) with 1:50 dilution of Chemiblocker® (Chemicon). […] Antibody concentrations were approximately 0.5 μg/ml. hVEGF₁₆₅ expressed from sf21 cells was injected over five minutes at 30 μl/minute using the Kinject feature with 15 minute dissociation over fc1 and 2. […] Regenerations were performed with two injections of 100 mM HCl at 50 μl/minutes for twelve seconds each. Data was processed in Scrubber2 and fit by a 1:1 Langmuir interaction model after double referencing of the control flow cell and blank injections.

[7] = molecular target: T3, hVEGF121-G88S (human, UniProt P15692-9 27-147, G88S); assay: sandwich ELISA, antibody coated, CHO-K1 supernatant
T3 construct: Transiently expressed in CHO-K1 cells; culture supernatant used
T3 sequence (looked up): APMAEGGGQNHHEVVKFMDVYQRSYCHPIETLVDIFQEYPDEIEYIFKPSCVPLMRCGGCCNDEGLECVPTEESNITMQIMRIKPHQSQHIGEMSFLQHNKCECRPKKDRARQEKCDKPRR

[8] = molecular target: T1, human VEGF165; assay: cell-based or functional assay; remark: listed apart in the source
[9] = molecular target: T1, human VEGF165; assay: Biacore 2000, IgG2 captured on Protein A/G, hVEGF165 injected, 1:1 fit
Method: as §5

[10] = molecular target: T1, human VEGF165; assay: sandwich ELISA, antibody coated
Method: (§6) Mutants were transiently expressed in CHO-K1 cells, and cell supernatants were collected for binding analysis by ELISA.
as §3

[11] = molecular target: T3, hVEGF121-G88S; assay: sandwich ELISA, antibody coated
Method: as §6, §3

[12] = molecular target: T4, hVEGF121-Q89A (human, UniProt P15692-9 27-147, Q89A); assay: sandwich ELISA, antibody coated
T4 construct: Transiently expressed in CHO-K1 cells; culture supernatant used
T4 sequence (looked up): T3 sequence (looked up) with S88G, Q89A
Method: as §6, §3

[13] = molecular target: T5, hVEGF121-M81A (human, UniProt P15692-9 27-147); assay: sandwich ELISA, antibody coated
T5 construct: Transiently expressed in CHO-K1 cells; culture supernatant used
T5 sequence (looked up): T3 sequence (looked up) with M81A, S88G
Method: as §6, §3

[14] = molecular target: T6, wild-type hVEGF121 (human, UniProt P15692-9 27-147); assay: sandwich ELISA, antibody coated
T6 sequence (looked up): T3 sequence (looked up) with S88G
Method: as §6, §3

[15] = molecular target: T7, hVEGF121-G92A (human, UniProt P15692-9 27-147, G92A); assay: sandwich ELISA, antibody coated
T7 construct: Transiently expressed in CHO-K1 cells; culture supernatant used
T7 sequence (looked up): T3 sequence (looked up) with S88G, G92A
Method: as §6, §3

[16] = molecular target: T2, murine VEGF165; assay: Biacore 2000, mVEGF165 amine-coupled on C1 chip, antibody injected
Method: as §4

[17] = molecular target: T1, human VEGF165; assay: Biacore competition, inhibition of hVEGF165 binding to immobilized VEGF-R1
Method: as §1, §2

[18] = molecular target: T2, murine VEGF165; assay: Biacore; IgG2, Biacore: weak binding, KD >100 nM
[19] = molecular target: T1, human VEGF165; assay: Biacore, IgG2 (summary table)
Method: as §5

EC50 [1]: 0.129 µg/mL | fold binding over CHO background [2]: 0.7 fold | HPP: sf21-hVEGF165, IgG2 (IC50) [3]: 0.15 µg/mL | Kd [4]: 1.71 nM | koff [4]: 0.000335 s⁻¹ | kon [4]: 193000 M⁻¹ s⁻¹ | HUVEC proliferation, geometric mean IC50 [5]: 1320 pM | Kd [6]: 1.24 to 1.71 nM | binding result [7]: no binding | Inhibition of HUVEC proliferation, EC50 (µg/ml), HEK 293 hVEGF165 [8]: 0.66 µg/mL | Kd [9]: 1.24 nM | koff [9]: 0.000286 s⁻¹ | kon [9]: 230000 M⁻¹ s⁻¹ | Raw data (ELISA signal) [10]: 2.09 | fold binding over CHO background [10]: 23 fold | Raw data (ELISA signal) [11]: 0.0778 | fold binding over CHO background [11]: 0.9 fold | Raw data (ELISA signal) [12]: 0.319 | fold binding over CHO background [12]: 3.5 fold | Raw data (ELISA signal) [13]: 0.868 | fold binding over CHO background [13]: 9.5 fold | Raw data (ELISA signal) [14]: 2.65 | fold binding over CHO background [14]: 29.1 fold | Raw data (ELISA signal) [15]: 2.08 | fold binding over CHO background [15]: 22.8 fold | Kd [16]: 197 nM | EC50 [17]: 0.159 µg/mL | Kd [18]: > 100 nM
B1: XPA.10.064 IgG2 (antibody, V domains shown)
VH: EVQLVQSGAEVRKPGASVKVSCKASGYSFTGHYIHWVRQAPGQGLEWMGWINPYSGGTNFPREFQGRVTMTRDTSVNTVYMELTRLTSDDTSVYYCARDHRIVGGLDYWGQGTLVTVSS
VL: SYVLTQPPSASGTPGQRVTISCSGSSSNIGINYVYWYQQLPGTAPKLLIYRNDQRPSGVPDRFSGSKSGTSASLAISGLRSEDEADYYCATWDDSLSGVVFGGGTKVTVL
notes: Converted to IgG with gamma-2 heavy chain constant region; Expressed in 293E cells; also called parental XPA.10.064; VPA.10.064

Kd [19]: 1.66 to 1.7 nM | EC50 [1]: 0.173 µg/mL | fold binding over CHO background [2]: 1.1 fold | HPP: sf21-hVEGF165, IgG2 (IC50) [3]: 0.24 µg/mL | HUVEC Proliferation Potency (HPP): HEK293-hVEGF165, IgG2 (IC50) [3]: 0.68 µg/mL | binding result [7]: no binding | Inhibition of HUVEC proliferation, EC50 (µg/ml), HEK 293 hVEGF165 [8]: 0.68 µg/mL | Kd [9]: 1.66 nM | koff [9]: 0.000279 s⁻¹ | kon [9]: 168000 M⁻¹ s⁻¹ | Raw data (ELISA signal) [10]: 2.66 | fold binding over CHO background [10]: 29.2 fold | Raw data (ELISA signal) [11]: 0.0951 | fold binding over CHO background [11]: 1 fold | Raw data (ELISA signal) [12]: 0.296 | fold binding over CHO background [12]: 3.3 fold | Raw data (ELISA signal) [13]: 1.22 | fold binding over CHO background [13]: 13.4 fold | Raw data (ELISA signal) [14]: 2.9 | fold binding over CHO background [14]: 31.8 fold | Raw data (ELISA signal) [15]: 2.78 | fold binding over CHO background [15]: 30.5 fold | EC50 [17]: 0.121 µg/mL | Kd [18]: > 100 nM
B2: XPA.10.072 IgG2 (antibody, V domains shown)
VH: B1 VH with E1R, V2L, V37A
VL: B1 VL with S1Q, Y2S, I29L, I31S, Y33F, D53H, T91S, S97R, G98V, V107L
notes: IgG2 (gamma-2 constant region); also called XPA.072; VPA.10.072
